Here are results for 13 sequences from the supplement of paper PMC9170038.

The series relates to MS2 coat protein. In words: apparent KD of MS2 coat protein; designed switch direction (-1 OFF switch, 1 ON switch): -1; higher = weaker reporter binding. Put shortly: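 The apparent KD reported per design is the median over clusters of curve fits to normalised cluster fluorescence. The RNA switches were transcribed on Illumina chips by stalled E. coli RNA polymerase. SNAP-549-labelled MS2 coat protein was titrated from 0.7 or 1.5 nM, doubling up to 3 µM, in Tris-HCl pH 7.5 buffer containing KCl, MgCl2, BSA, DTT, tRNA and Tween-20, with no input, 200 uM small-molecule ligand, or an oligonucleotide input.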

Setting [1] is: input ligand: microRNA oligo, concentration not stated.
The mark [2] stands for this setting: Eterna round: R95, input ligand: microRNA oligo, concentration not stated.

As to “UUUGAUAGCACAGGAUAUUGUGAUUUGAGUUGACAAGAAGGGUGUACAUGAGGAUCACCCAUGUAAUGGUUGCCUCGUUGACUU [JR_ExcNG1_Sub006] (Eterna round: R96, puzzle: Exclusion NG 1)”, the “apparent KD of MS2 coat protein” value is 48.8 nM (input ligand: FMN 200 uM), 36 nM under setting [1] and 46.8 nM (input ligand: none).

Regarding “UUUGCAAGCUUAAGAUCCCACAUGAGGAUCACCCAUGUUGCUGCCGUGAGGUAGCUUUUAACUUAUGCUCGUCUUAU [JL TOV1 3.46] (Eterna round: R97, puzzle: Sensor, turn-off variant 1)”, the “apparent KD of MS2 coat protein” value by setting is: (input ligand: FMN 200 uM) 95.7 nM; (input ligand: none) 115 nM.

Take “UUUGCAAGCUUAUGAUCCCACAUGAGGAUCACCCAUGUUCCUGGCCGUGAGGCUAGGAUAACAUAUGCUCGUCUUAU [JL TOV1 3.64] (Eterna round: R97, puzzle: Sensor, turn-off variant 1)”: the “apparent KD of MS2 coat protein” value reads like this: (input ligand: FMN 200 uM) 703 nM; (input ligand: none) 814 nM.

Turning to “UUUGUGUAAGGAUAUGCGAGCCACGGAAAUAAAACGUGGAGGUAGAAGGUACAUGAGGAUCACCCAUGUAAAAC [Mod of Anonveat 21 - Jieux - Exclusion 4] (Eterna round: R97, puzzle: Exclusion 4)”, the “apparent KD of MS2 coat protein” value reads like this: (input ligand: FMN 200 uM) 54.8 nM; (input ligand: none) 30 nM.

With “UUUGUUUAGGUAGGAUAUACUUUUAAUUUCUCUUUCCUUACAUGAGGAUCACCCAUGUUUACAUUGUAGAAGGACCACUUUGUU [JR_ExcNG2_Sub052] (Eterna round: R96, puzzle: Exclusion NG 2)”, under setting [1], the “apparent KD of MS2 coat protein” value came to 16.5 nM.

On to “UUUGUUUAUGUAGGAUAUGCCUGGCGUGCCUUUGCAGAAGGACAUGAGGAUCACCCAUGUAUUGCGGUCUGCGUUCAGAUCGCU [salish99_ExNG1_r4_037] (Eterna round: R96, puzzle: Exclusion NG 1)”, for which the “apparent KD of MS2 coat protein” value runs as follows: (input ligand: FMN 200 uM) 37.1 nM; under setting [1], 26.8 nM; (input ligand: none) 34.8 nM.

For the sequence “UUUGUUUGCACAGGAUAUUGUUAUUUUAUUUUUCAAGAAGGGUGUACAUGAGGAUCACCCAUGUUAAGGUUUAAUCUUUCACUU [JR_ExcNG1_Sub010] (Eterna round: R96, puzzle: Exclusion NG 1)”, the “apparent KD of MS2 coat protein” value is, setting by setting: (input ligand: FMN 200 uM) 346 nM; under setting [1], 479 nM; (input ligand: none) 619 nM.

As to “UUUGUUUGCACAGGAUAUUGUUAUUUUUUUUUUCAAGAAGGGUGUACAUGAGGAUCACCCAUGUUAUGGUUUUAUCUUUUACUU [JR_ExcNG1_Sub011] (Eterna round: R96, puzzle: Exclusion NG 1)”, the “apparent KD of MS2 coat protein” value by setting is: (input ligand: FMN 200 uM) 764 nM; under setting [1], 765 nM; (input ligand: none) 1270 nM.

Regarding “UUUUAACAAGCGAGGUCCCACAUGAGGAUCACCCAUGUAGGUCAUGGAUUCCAUGGUCUUUUUGCUCGUCUUGUGUG [jl TITIN mod 9] (Eterna round: R97, puzzle: Sensor, turn-off variant 1)”, the “apparent KD of MS2 coat protein” value (input ligand: FMN 200 uM) amounted to 32.2 nM and the “apparent KD of MS2 coat protein” value (input ligand: none) is 31.6 nM.

With “UUUUAACAUGAGGAUCACCCAUGUGAGGAUAUCAUUUUUUUUUUUUUUUUUUUUUUUUUGAGAAGGCACAUUUU [My solution] (puzzle: Exclusion 1)”, the “apparent KD of MS2 coat protein” value was 11.9 nM (Eterna round: R95, input ligand: FMN 200 uM); 37 nM under setting [2]; 14.2 nM (Eterna round: R95, input ligand: none).

On to “UUUUAACAUGAGGAUCACCCAUGUGAGGAUAUCGAAAUUUAUAUUAAUAUUAAUUAAACGAGAAGGCACAUUUU [JMF 27] (puzzle: Exclusion 1)”, for which the “apparent KD of MS2 coat protein” value under setting [2] stood at 72.5 nM.

As for “UUUUAACAUGAGGAUCACCCAUGUGAGGAUAUCGAAAUUUAUAUUAAUAUUAUUUAAUCGAGAAGGCACAUUUU [JMF 44] (puzzle: Exclusion 1)”, the “apparent KD of MS2 coat protein” value under setting [2] was determined as 100 nM.

With “UUUUAACAUGAGGAUCACCCAUGUGAGGAUAUCGAAAUUUAUAUUAAUAUUAUUUUAUCGAGAAGGCACAUUUU [JMF 48] (puzzle: Exclusion 1)”, the “apparent KD of MS2 coat protein” value under setting [2] stood at 122 nM.
